The values that follow come from patent US20260201015A1 (University of Washington, published 2026).

Where “and” joins values, the source holds several entries; their conditions need not be identical. Equal values may be shown once. Bounds are passed on as bounds.

As a reminder, the Kd is the free concentration of one partner at which half of the binding sites on the other are occupied at equilibrium, for simple one-to-one binding.

The target in assay [1] is T1, glucagon (GCG) (UniProt P01275 53-81, fluorescently labeled (FAM or TAMRA) in FP assays, site not stated; biotinylated in yeast display). The assay is described as follows: fluorescence polarization. As for the experimental part:
(§1) Fluorescence polarization binding assays were carried out in 96-well plates (Corning 3686), with two-fold serial dilution of designed peptide binders in the presence of 0.5 nM fluorescently labeled peptide targets. Protein and peptide were diluted from their stock concentration into 20 mM Tris-HCl pH 8, 100 mM NaCl, 0.1% v/v Tween 20, and the protein was titrated in 2-fold serial dilutions onto constant peptide. After incubating the peptide and binder for one hour at room temperature, the fluorescence polarization was measured at the excitation and emission wavelengths of the FAM dye (485/530 nm) or the TAMRA dye (530/590 nm), in a Synergy Neo2 multi-mode plate reader. Titrations were conducted in replicate, and the Kd was fitted with SciPy¹⁸. Specifically, curves were fit to N observations of an observed signal, Signalᵢ, at titrated concentrations according to the following equation: […]
For orientation: Polarisation of emitted light reports the rotation of a fluorescent probe.

For a further assay, the target named is T2, secretin (SCT) (UniProt P09683 28-54, fluorescently labeled (FAM or TAMRA) in FP assays, site not stated).
T2 peptide (looked up): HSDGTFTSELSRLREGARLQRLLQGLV
As to the kind of experiment: fluorescence polarization. As for the experimental part: as §1

The target of the next assay is peptide YY (PYY) (UniProt P10082 29-64, limits assumed, fluorescently labeled (FAM or TAMRA) in FP assays, site not stated). The assay is described as follows: fluorescence polarization. On the procedure:
as §1

For assay [2], the target named is T1, glucagon (GCG). As to the kind of experiment: fluorescence polarization titration (FIG. 6a). As for the experimental part: as §1
The target in assay [3] is T3, neuropeptide Y (NPY) (UniProt P01303 29-64, fluorescently labeled (FAM or TAMRA) in FP assays, site not stated; biotinylated in yeast display). The assay is described as follows: fluorescence polarization. As for the experimental part: as §1
For assay [4], the target named is T4, Gastric inhibitory polypeptide (GIP) (UniProt P09681 52-93, fluorescently labeled (FAM or TAMRA) in FP assays, site not stated).
T4 peptide (looked up): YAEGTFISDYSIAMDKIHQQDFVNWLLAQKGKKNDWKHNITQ
The assay is described as follows: fluorescence polarization (FIG. 7b). On the procedure: as §1

Assay [5] deals with T4, Gastric inhibitory polypeptide (GIP). As to the kind of experiment: fluorescence polarization titration. As for the experimental part:
as §1

The target in assay [6] is T5, parathyroid hormone (PTH) peptide (UniProt P01270 32-65, limits assumed, TAMRA label in FP assays (PTH-TAMRA), site not stated; biotinylated in yeast display).
T5 construct: In the NanoBiT assay the peptide was genetically fused to lgBiT; also called PTH-TAMRA peptide
T5 peptide (looked up): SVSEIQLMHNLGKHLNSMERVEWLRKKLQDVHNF
As to the kind of experiment: fluorescence polarization, binder titrated onto labeled peptide. As for the experimental part:
as §1

Assay [7] has as its target T5, parathyroid hormone (PTH) peptide. The assay is described as follows: FP against the NanoBiT estimate for the starting parametric binder.
The next assay has as its target T6, BIM BH3 peptide (Bim) (UniProt O43521 141-166, limits assumed, fluorescently labeled (FAM or TAMRA) in FP assays, site not stated; biotinylated in yeast display).
T6 construct: domain: BH3
As to the kind of experiment: fluorescence polarization. As for the experimental part:
as §1

In assay [8] the target is T7, Glucagon-like peptide 1 (GLP1) (UniProt P01275 98-128, fluorescently labeled (FAM or TAMRA) in FP assays, site not stated).
T7 peptide (looked up): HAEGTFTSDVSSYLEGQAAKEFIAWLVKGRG
As to the kind of experiment: fluorescence polarization (FIG. 7a). On the procedure:
as §1

Assay [9] addresses T7, Glucagon-like peptide 1 (GLP1). As to the kind of experiment: fluorescence polarization titration. On the procedure: as §1
Assay [10] deals with T5, parathyroid hormone (PTH) peptide. As to the kind of experiment: fluorescence polarization. On the procedure: as §1
Assay [11] concerns the target PTH related peptide (PTHrp) (UniProt P12272 37-70, limits assumed, fluorescently labeled (FAM or TAMRA) in FP assays, site not stated). The assay is described as follows: fluorescence polarization. As for the experimental part: as §1
The target in assay [12] is T3, neuropeptide Y (NPY). The assay is described as follows: fluorescence polarization titration (FIG. 6b). On the procedure:
as §1

T1 sequence (P01275 53-81 limits assumed): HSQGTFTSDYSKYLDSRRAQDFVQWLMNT
Chain of peptide YY (PYY) (P10082 29-64 limits assumed): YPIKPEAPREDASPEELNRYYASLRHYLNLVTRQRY
Chain of PTH related peptide (PTHrp) (P12272 37-70 limits assumed): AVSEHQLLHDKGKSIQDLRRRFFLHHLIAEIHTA
T6 sequence (O43521 141-166 limits assumed): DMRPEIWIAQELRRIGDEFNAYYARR

B1: SCT_A02 (Sequence threading), threaded SCT binder, SEQ ID NO: 5 (designed binder)
chain: SEELEERLREARERLEEARERLEEAREEGDLREMARALLEEARAVLEIARVAAEAGDDEALREAARRAGEVIRRAGEVGLRAAEEGDTETIREAMLAILEAQRASAVIALHLARDDPEVAEALRVIERLLRTAERALREGQLEVARLATEAVEALADAILRAREIGRPELVREAARLAEEARRLLEAALEALRAGDEEGARERLARARELIREIRERVRRA
notes: also called SCT design
Turning to B1, in the assay with glucagon (GCG) [1], the Kd amounted to 12 nM and the “fold selectivity for SCT over GCG” value came out at 4 fold. Moreover, the Kd with secretin (SCT) was 3.95 nM and 2.7 nM.

B2: GCG_C09 (RF Diffusion/Partial diffusion), partially diffused GCG binder, SEQ ID NO: 8 (designed binder)
chain: SMEKLAEIMQEIIEAYQEVKDAFFKFIKAVHEGAPEEELKKYLEKMKEALEKMKELLERLEKEAKKVIEENKDKKLELKVLLMLRLAYLLLKVSIELTKIAAEKLGDKELVEELEKESKEVEKKIKELEERIKKLLEEVDDEELKEAYKEVEEMEKEAEKFLEKMRKV
For B2, the binding result in the assay with glucagon (GCG) [1] is “binds”. For the same molecule, the “fold weaker binding to SCT than to GCG” value with secretin (SCT) stood at 10 fold.

B3: PPY_A04 (RF Diffusion_flex), flexibly diffused PYY binder, SEQ ID NO: 12 (designed binder)
chain: GLEEAEKLLEEIFANFEEIVELIKKNIGTERGKKLLKVFVATVDLILARLEQGADLAELAELVKEIAELAKDEEGLEEAEKLVKELTAAR
As to B3, the Kd with peptide YY (PYY) was 24.5 nM.

B4: GCG_A04 (RFjoint), inpainted GCG binder, SEQ ID NO: 3 (designed binder)
chain: MLDELFSLLNKMFELSDKYRELRKELRKAIESGAPEEELRELLEKMLEIAKKLLELTKELKKLVEDVLKNNPDPVERAKAVLLYAVGVHILYSESSELEVIAERLGFKDIAEKAKEIADKARELKEEVKRKLREIREEVPDPEIRKAAEEAIEMLESNDKRLKEFRKL
Take B4: in the assay with glucagon (GCG) [2], the Kd was found to be 231 nM.

B5: NPY_C5 (RF Diffusion/Partial diffusion), partially diffused NPY binder, SEQ ID NO: 9 (designed binder)
chain: GMEERRKELLEKLKKLKEEVVELFRELAQALRDGASKERLEEIRERAEKLAEEAKKVAEELEKLAEGDAVLQLYLAEAYALEAAALTIEAVAAAELGASKEELEKIKEKIEEALKKAEEAMKKALAEAKARGRERLVRLIEEARKEFEKLSKAIKELLEQV
In the case of B5, in the assay with neuropeptide Y (NPY) [3], the Kd was 5.29 nM and 5.6 nM. Further, the binding result with peptide YY (PYY) is “no binding”.

B6: GIP_A08 (Sequence threading), SEQ ID NO: 6 (designed binder)
chain: SPKEKAERLIKEAKEAAEKAKEAAERSGLEEAKKAAEELTKLLEEAAARVAADPEDETKLRALEKIVEAAKEAVKALEVAIESGDEQLIRAALSLVEAAVHLAKALLAKPESPLVDFGFELLKLAAKTLAAYAEGEDVDKIALKLKAISAMAEALRLALAGDLERAARAAEEAVRYAIEAGDKELLRLAAEVAAYIARLAEEAGLEEVARRAREAAERAREAAK
With B6, the Kd was under 100 nM in assay [4] and 6.96 nM in assay [5].

B7: PTH_B10 (RFjoint), inpainted PTH binder, SEQ ID NO: 2 (designed binder)
chain: SFELLEKLIELSKELYEVAKKYIETGDPELKKKLEEILKKIEEAYKELLESDAHPLEKALAKLILAEAYVVKSFAYISSGKDLEKAQEYLDKAKEILEELLKLLEELKKEETDPEKLEIIEELEKIAEELLKEIEE
notes: Expressed in E. coli, purified on Ni-NTA and by SEC
Consider B7, for which, in assay [6], the Kd was 6.1 nM. In assay [7], the “fold improvement in affinity over the starting PTH binder” value was about 1000 fold.

B8: BIM_E09 (RF Diffusion), fully diffused Bim binder, SEQ ID NO: 11 (designed binder)
chain: EEERKEKREKVRAGLKRAIAELPAEVAARCLALLDDASDEEFIEAVLEVLEAMREALVAMAREGRLDAVRRATSHINEVLVDAAELALEKGREYFRRLCLIVCDMMIELIRLEPEQTPELRRIRERLEEIRRRLE
B8: in the assay with BIM BH3 peptide (Bim), the Kd was under 0.5 nM.

B9: GLP1_B04 (Sequence threading), SEQ ID NO: 7 (designed binder)
chain: SPEEEARRAAREAERAAREAREAARRLGDEESVRVAERLEREARRAERERDLELARRVLRAAEALRLALEGELLAREQGDELGVVVARMITLAARDSALGRGTPELARLLLRVARALLEGDLEEVVRSLAEIAKREIGTERALLAVEAIKLVALESIEEGDFETAELAIEKLREIAEEFEGTEVAEKAREAIEEIEKKKREAE
In the case of B9, the Kd in assay [8] was under 100 nM; in [9] it was 68.8 nM.

B10: PTH_D08, fully diffused PTH binder (RF Diffusion), SEQ ID NO: 10 (designed binder)
chain: MREKLEEMLEEFNEVIDELIEITKEDAPELEELRERAEEAVENERLDELEEILDELEVIILEAMFRDLSAAIEMTKAKNDKEKLKELLKQLEELEKRIKELLERAKKRGNKKIIEKLEKLLKEVEKLKKEIEEYLK
In the case of B10, in [10], the Kd was under 0.5 nM. The binding result in assay [11] was “no binding”.

B11: NPY_A9 (RFjoint), inpainted NPY binder, SEQ ID NO: 4 (designed binder)
chain: GAAEKLAELYEKFKALREKALEVLKKAVEALENKADKETLLKLIKELKELAEKFEELAEEFERNAGESTTASLNATAAYMARIGLLAALLALAKAAGVPEEELEEIKRRIEETAKRAIEAAERLKALAEARGDTKHVAVGVEAVRMATELYELAQKIIDAF
As for B11, the Kd with neuropeptide Y (NPY) [12] turned out to be 3500 nM.
